Assay: soluble on expression in E. coli; label from the status in PepcDB or PDB records

Row | Sequence | soluble on expression in E. coli
1 | MAHHHHHHMNVINRMLSRGHVAASASLPIKERPFPVNYGLSTFKWHLDSRKPSKAILLHDLFGSSAYWQMLLHESLGRLPCSGLTPLVPLELFAVDFRGHNHSKSLPCPEEGRAFTMACAADIMLLQQQVLRADAKLVGIGFGALVACQAALHSPESGIDSLVLIVNGPSDLLACEPARYSLPSFISDIPKEISSVADLEHHLHKRVPNEAERALILSTVEQREGTVGFKFNETLFQFRGPLCGFSDVGPENIFTKPVTVIQCGSEEFSGEAKSDFMKHFPKAKFVLFEGDRSGGISGLSAQGPAVTRTLLEAMELLGETTGGEE | not soluble
2 | MGHHHHHHMAGVSEYELPEDPRWELPRDRLVLGKPLGEGAFGQVVLAEAIGLDKDKPNRVTKVAVKMLKSDATEKDLSDLISEMEMMKMIGKHKNIINLLGACTQDGPLYVIVEYASKGNLREYLQARRPPGLEFSFNPSHNPEEQLSSKDLVSCAYQVARGMEYLASKKCIHRDLAARNVLVTEDNVMKIADFGLARDIHHIDYYKKTTNGRLPVKWMAPEALFDRIYTHQSDVWSFGVLLWEIFTLGGSPYPGVPVEELFKLLKEGHRMDKPSNCTNELYMMMRDCWHAVPSQRPTFKQLVEDLDRIVALTSNQEYLDLSMPLD | soluble
3 | LTETGALFKLEVALLKDKVTLTLDTTGPSLFKRGYRIEKGGAPLKENMAAALVMLTNWRKDRPFYDPVCGSGTICIEAALIGHNIAPGFNRSFTCETWDWVDPAIFEKVRNEAEAKADYDVELDICGSDVDGRMIEVARANAEEVGLGDSITFKQLALKDFTTEKEYGVMVANPPYGERLGEEESVRRLYKEMGHVFRPLTTWSKYILTSDLAFEEYYGAKATKKRKLYNGALRTDLFQYWGTRPPRKPRED | not soluble
4 | MGHHHHHHSHMISSNIREARTVILPRLMLEITSNGTLTVASHTPIFQKLSLLDLPSLTAHLKTKLSGSMFKGFLFATLCETEDHVTTLDMHPHVFEKRLVLYNPRNTCNKELCALISMVENLMDCDPKLPLSIYMRGKRLFQKNPGKDSCFLFKGLSTLISTHFAVYHPNFTVNDELLLPPLLAYKMHSTIEGIDEVSKGLLKAIYLDSYRMDNNIDDFQNPAGTFTLLCLPTIFTKHLTVPNVLILIKRAGLMYEAIDNIIL | not soluble
5 | MSPKSKSTNKTYTIVIKLGTSSICDEKTHEPLISNLSLIVETVVKLRKLGHNVVLVSSGGIAMGLRRLDLPKRPSKLSAVQAIAAVGQGRLISLWDTLFTQLRQPIAQVLITRNDIAERSQYVNAANTISELLHFGVVPIVNENDTLSVQEIRFGDNDTLSAITAGMINADYLFLLTDVDCLYTDNPRTNPDAKPILKIHDTSMVNANVSTPGSGVGTGGMKTKLIAADLGTSSGVNVIICRGSKPSSIFDIIRQESSDNKNESVELPLHTHFVAKKQGRIRDRHFWLLHGLKSHGSLEIDRGAFEAITRTNRAGLLPVGVTKVHGHFSAHQAVTVIYNGEEIGRALVNYSSTEIDLIKGKRSKEIASILGYNETEYVAYRDYLVVHGLNSHHDSQVSSDEH | soluble
6 | ANNLPDTQSSGPAHSKETPALTAVETGATNPLVPSDTVQTRHVIQKRTRSESTVESFFARGACVAIIEVDNDAPTKRASKLFSVWKITYKDTVQLRRKLEFFTYSRFDMEFTFVVTSNYTDANNGHALNQVYQIMYIPPGAPIPGKWNDYTWQTSSNPSVFYTYGAPPARISVPYVGIANAYSHFYDGFAKVPLAGQASTEGDSLYGAASLNDFGSLAVRVVNDHNPTKLTSKIRVYMKPKHVRVWCPRPPRAVPYYGPGVDYKDGLAPLPGKGLTTY | soluble
7 | MANCENNPWKKNAWGKNEETAEEPIVSFADVLSEEFIEDLSVQEKLEEERYMKQLDQMFGDTSVSDDQLPINTEGMTDEEVALALQRHFDREADVARAVGSSSSVHFTPDRYHPKTMQETDSENEDDDALRQAATDMLYAKLDEENATNSRLRPEGPSTSRTKHDTGVSGRRNADKTFNDRNTLPTGDMVGDKLNNKVFNKLMAFGKSESKRQMRNKDKEEKATMDTSVDSDTRLLLLKWINQGVFDSVDGIIATGKESAVLHAAQDSATSYAIKVYKTTLSEFKNRSEYVKDDFRFKNPRGVLKIWAEREFMNLSRMAKHGLPCPQPVKVRRNVLVMSFLGDQGLAAPRLKNVEWEFFTDDERRNVYDQVQSIMCRMYKECLLVHADLSEFNLLLTPDNKVHVIDVSQAMDLSHPRSLQFLTRDIQNIITFFTRIGTPNLPTYVQLFNLITDLDMVEDHDLLVQVEQFSEENRSVDLRHDKSRPADMELKKYNEEKKANRGISPAREYN | not soluble
8 | MGSDKIHHHHHHMVMGDITRIDTVQQYCDLFEVEALHPLVSVVNCYEVQPIRHSKKLYNIYAVLLKDTDCGTMNYGRSLYDYEKGSMLFIAPGQVMGSDDDGSLHQPAGWALMFHPELLRGTSLAHIIKEYSYFSYNANEALHLSEQERKVVIECINNVAEELRHPIDKHSRSLIIDTMKLLLDRCIRFYDRQFITRENANNDLLARFELLLNNYYHSALPTSKGIPTVQYCADQLCLSTNYFSDLVKKETGMSAIKHIQQKIMDIAKERIMNTQKSISQISDEMGFQYPQHFTRWFKKMEGCTPNEYRNEIIKQAIN | not soluble
9 | MITMTEVKGKTANESRVFKTSRVFPTDLNDHNTLFGGKILSEMDMVASISASRHSRKECVTASMDWVDFLHPVRSSDCVSYESFVIWTGRTSMEVFVKVVSEYLISGEKRIAATSFVTFVALSKENNPVPVPRVIPDTEEEKESHRIAVLRAEQRHIRKAESKKVATLLTF | soluble
10 | DSTITGASEKAEDAFKASYPAVYRYLEGYKDLLTKRNQAETGIRYEWYALQRWGANYWEDFSKPKIMWKRIGSILRFCYNENGALGLDSTCFAAGKG | not soluble
11 | MPCSFAPGFLALTVAIHPGTTAQPSQQSPRAFPFFRPVLAQLMKHRVAQESTRRWLDRIIQIIKYAYCQKLRRHFCQATLWKMIQLIVNGQSQLVPSPDSGTDSGTTNDARLNIRQLLEHMGLQGKRIAVERNGEIVPRSQFDQPMLASGDKLEIVVAVGGGLEHHHHHH | not soluble
12 | GPGSMSTEDASIAYAKKHKIHHLFELMATKVLLNRPENPFAYLRNLLKDVEESEKNRVPYDPTEVHFNNDVGAAAPAAGNSGGSGAAAPAAALTSAKKEKRTVTLATFGLDRAGKTCALSVLESGEADKKYTPTVGFAPIKFPLDDYNLCVFDLGGAANFRGIWVHYYHDCFGIVYVIDSAASDERVAESLKVLHETLQHPYVKGKPLLVLANKKDLPESRGVGVVPQGFLEEAMGEPGAPHRVLATCAIEDDPVLVEGIEWLLEAVSKEYDTLAKRVAKDSNEVKSEKARQRAARLAAIRGEDR | soluble
13 | MSDLVSYHLDDGVATLTLNNGKVNAISPDVIIAFNAALDQAEKDRAIVIVTGQPGILSGGYDLKVMTSSAEAAINLVAQGSTLARRMLSHPFPIIVACPGHAVAKGAFLLLSADYRIGVAGPFSIGLNEVQIGMTMHHAGIELARDRLRKSAFNRSVINAEMFDPEGAMAAGFLDKVVSVEELQGAALAVAAQLKKI | not soluble
14 | MNFLDAVYNAGVVGAGGAGFPTHLKMTKEVGTFIVNGAECEPLLEVDKFLMREKTYELIKGMEIIAGNLKAARVVLGLKKKYKVEIKKLSETIKELDSNVELFLMDNFYPAGDEQIMVKDITGKSIPAGGIPLDVDTVVSNVGTVINVYEAIEEKPVTKKYVSVLGEVNNPVMLEVPIGTSFEECIKRAGGVKIKNYAVIEGGPMMGKIVHRDELAEKAVIKTTGALIILPEDHYVIKRKERPEAHILNESRAACIQCRMCTDMCPRYLIGHKLRPHRVMRAMGMGEQDEEILKEALICCECNVCELFACPMGISPKSTNTYLKGVFREKGVRYDGNKEIPSEHEMRDYRKIPVNRLIARLNLSRYYNNKVADLQELKADKVKIFLSQHIGKPAVPLVKEGDRVIEGQRIAEVGREEFGANIHASINGVVTKVEKSYIEIDGMV | not soluble
15 | EMGTADLGPSSVPTPTNVTIESYNMNPIVYWEYQIMPQVPVFTVEVKNYGVKNSEWIDACINISHHYCNISDHVGDPSNSLWVRVKARVGQKESAYAKSEEFAVCRDGKIGPPKLDIRKEEKQIMIDIFHPSVFVNGDEQEVDYDPETTCYIRVYNVYVRMNGSEIQYKILTQKEDDCDEIQCQLAIPVSSLNSQYCVSAEGVLHVWGVTTEKSKEVCITIFNSSIKGSLWIPVVAALLLFLVLS | soluble
16 | MLMSLSRRELIKKEIFDIEEYVPGRSIEEIASTYGLKPESIIKLGSNENPLGPSPKAVKALIEAAPGANIYPSADAHELREALSKYTGFPVSNIVASGPGMDGLLDGLCRIIIEKGDEVIVPIPTFSYYELPARACGAEPVFIRRNQDFSLNPEKILEAVSPRTKIIFLCSPNNPSGNLLPEADLRKIIENTDALVFVDEAYVEFADRNLAALVNEYDNVAVGRTFSKVFGLAGLRLGYGIMPEWLTKEYLRAATPFSVSLPALRAGLAALSDTEYLNKSINLAREGREYLKEKIPFKVYPSQANFVLVDVSPLKAKKVTESLLKKGIIVRPCDSFREAGDSFIRVTVGTPEQNEKVVRAFEISKSEV | not soluble
17 | MEANTSSSGTVTGQRFAERRRSLPPGAELRQRLLKQLKELCDQIGKAYSTLVQKAALVIEPADQAVSLEPDTQRQATCITNLSDEGELWTTVYELNLGVQNLLMFIEDIRLLLLTQAQVPGPSVEENGLKTAGKGGCSPTELEGARFSDRLSSSNTHRFLEQLWDRYTP | soluble
18 | MKEYLTNERIRAKQVRVVGPDGKQLGIMDTREALRLAQEMDLDLVLVGPNADPPVARIMDYSKWRYEQQMAEKEARKKAKRTEVKSIKFRVKIDEHDYQTKLGHIKRFLQEGHKVKVTIMFRGREVAHPELGERILNRVTEDLKDLAVVEMKPEMLGRDMNMLLAPVKVSA | soluble
19 | MDRNFKLRQMFSDYLDNKNSNSTHTPPVRVHYPLIATMSPADKARFTVKKITEVEGEVLDAPLENAHPVFFAEPQFELRWYNKPDSLAGRFQTNAEAETTSKLAQRLLTLFLKTEMLESAFFKYDDIRAIRVFFMDDREMATDRLMAILDNILSVSMTKLGHFSDKMSVTVDYELRAFMSDQKKAKRLVLEAMLKYPEFIPDSWGGESAILKWKEMKEIDVRRREADIKEMAETERKEKEKVEKNKMEMTEKIKKKDEDEKAKKEKERIDKEEKIKKEVEEAEKKKKEEKEKRRKEVKKNREEQLSINPEMSRNDKKDVVEEKSCLDKGAKDAQKKKKQQDVVDKKKEKRKLKKTRTMEASRSREVSHEEHHQPPVLSTLATPSPVPSPSVPPTAPPSTPRKPMFGAVSQFLSGRKRREPSAEKIVEPPSKNSAAATKKTVRK | not soluble
20 | MCIGMDIRDFFAQSAGRWFSQRTSHHLAFKQTESGKSQLTIELLSVDDPAVIALCQQYDMDPAWAVCGARVSWDGTMEWDNEKHEGSTVLVPIMDQGSRMEGKLLREMGYAEKAPVAGRFSMGSDGALTLITEYETIYSEERLWFASPNLRLRTSILKRFGGFSMASFCSEIRLGVTQPANSLEHHHHHH | soluble
21 | MGSDKIHHHHHHMNTLTDILNRPRKLRPECLLIVGDSNMGKTTIIHEFARQYYTKTVSDADMDLLSVTKPVLPILAPAKANVKELYINILNHFFVPFRASDPEAKLRNQAVHLMRKYETKMLIIDEIHNCLTGSAKLLPEVMNTLKNLSNELSLNIVGVGTREAITILHTDPQYASRFDVVNLPKWELNQDFLRLLVSYVRLLPLKKQSNLASKEIATLIFEVSGGNLGDLNRLLVECAKEAILQGDEEITYDIVHKFKWLKPTEGLRNIRNINLSLS | not soluble
22 | DNRLKEENPDSTLRDTEYIDVGESPDGGKYRGVILFELGQLNKTNKIEKATLSLFWYYPEESRKEDTILEVYRPEKWCEEHISWGAREINTPWKNPGGDWYDKNGVSQGSTPYSTITFKSSSLPDNRYYELDVTELVREYISGKYENTGFLIKSRAEDSDYIAFYSSEWQNKNQMPRLSIEYKNE | not soluble
